Read-outs that look alike come from different tables or passages of the source. Positions of bridges follow the written chain, without caps; N, C: chain ends. No end group written: not given here. Some results are limits rather than exact numbers.

Data set [1] relates to rat INS-1 β-cells. The experiment in a line: Alamar Blue reduction β-cell viability assay. Type of data set: cell-based. The note with it: for Toxicity to β-cells over the time course of aggregation: 20 μM peptide solutions, 14 μM final on cells, aliquots at different time points. Here is the method: Rat INS-1 β-cells (832/13) were generously provided by Professor Newgard (Duke University). β-cells were grown in RPMI 1640 supplemented with 10% fetal bovine serum (FBS), 11 mM glucose, 10 mM Hepes, 2 mM L-glutamine, 1 mM sodium pyruvate, 50 µM β-mercaptoethanol, 100 U/ml penicillin, and 100 U/ml streptomycin.
(§1) Synthetic amyloidogenic and non-amyloidogenic IAPP peptides were dissolved in 1,1,1,3,3,3-Hexafluoro-2-propanol (HFIP) for 5–12 h, aliquoted and lyophilized to a dry powder. Amyloid formation was initiated by dissolving dry HFIP-treated peptides in 20 mM Tris HCl buffer (time-zero) at pH 7.4. Samples were incubated at 25°C, unless indicated otherwise. Aliquots were removed from the peptide solutions at designated time points over the course of amyloid formation or aggregation as schematically depicted in Figure 2A. The kinetic species populated within each of the three phases of amyloid formation were concurrently characterized by biophysical methods and biological assays assessing changes in metabolism, oxidative stress, inflammation and apoptosis using INS-1 β-cells and murine pancreatic islets.
Rat INS-1 β-cells were seeded at a density of 30,000 cells per well in 96-well plates 12–16 h prior to start of experiments. Hand purified islets were seeded at a density of 25–30 islets per well in 96-well plates. Amyloid formation and aggregation assays were initiated by dissolving IAPP peptides (15 μM to 80 μM stock solutions for dose-response experiments) in 20 mM Tris HCl (pH 7.4), unless stated otherwise. Peptide solutions were incubated at 25°C, or as indicated. Aliquots were removed from amyloid formation and aggregation assays at different time points and applied exogenously to rat INS-1 β-cells (5 h incubation) or murine pancreatic islets (10 h incubation). β-cells and islets were photographed by light microscopy immediately before and after toxicity experiments to assess changes in morphology. The final range of peptide concentrations examined in β-cell and islet toxicity assays after diluting IAPP peptide solutions into cell or islet culture was 10.5 μM to 56 μM in dose-response studies, unless indicated otherwise. Cell viability was measured by Alamar Blue reduction assays, which detect changes in metabolic function, and by morphological changes detected by light microscopy. Alamar Blue was diluted ten-fold in culture medium and incubated on β-cells or islets for 5 h at 37°C. Fluorescence (530 nm excitation and 590 nm emission) was measured with a Beckman Coulter DTX880 plate reader. Values were calculated relative to control β-cells or islets treated with buffer alone. Toxicity was defined as <80% viability. Light microscopy images were captured using an Olympus BX-61 light microscope.
A general note: Alamar Blue is a resazurin reagent that responds to reducing activity.

The nature of data set [2]: Amyloid formation kinetics (thioflavin-T binding, TEM). Type of data set: physicochemical. To be noted: 20 mM Tris HCl pH 7.4, 25°C; for Amyloid formation: thioflavin-T binding and TEM, 20 µM peptide (3xL-IAPP 40 µM), I26P-IAPP over 35+ h. As for the experimental part:
as §1
Aliquots (100 μL) were removed from amyloid formation and aggregation assays at different time points, and added to 96-well plates containing 8 μL of a 1 mM thioflavin-T solution. Fluorescence was measured using a Beckman Coulter DTX880 plate reader (445 nm excitation and 485 nm emission). Final solution conditions contained […] and 74 µM thioflavin-T (pH 7.4).
Aliquots (4 µL) were removed from amyloid formation or aggregation assays at different time points and placed on a carbon-coated 200-mesh copper grid and negatively stained with saturated uranyl acetate. The samples were imaged with a Philips CM12 or a FEI BioTwinG2 transmission electron microscope.

The nature of data set [3]: Photochemical induced cross-linking / SDS-PAGE oligomer distribution. To be noted: 20 µM peptide, 20 mM Tris HCl pH 7.4, 25°C, at time points of h-IAPP toxicity, supernatant after 20,000 g 20 min, Tris(bipyridyl)Ru(II) cross-linking, silver stain. Type of data set: physicochemical. As for the experimental part:
Samples were cross-linked using Tris(bipyridyl)Ru(II), in the presence of ammonium persulfate. IAPP peptides were incubated for indicated times in 20 mM Tris HCl (pH 7.4) at 25°C. Aliquots were removed at indicated time points, centrifuged at 20,000 g for 20 min and added to the cross-linking solution. Samples contained a final concentration of 20 µM peptide, 70 µM Tris(bipyridyl)Ru(II) and 1.4 mM ammonium persulfate. Samples were illuminated with a 150 W incandescent bulb for 5 s, unless otherwise noted. The reaction was quenched by the addition of β-mercaptoethanol. The products were separated by SDS polyacrylamide gel electrophoresis using a 10–20% Tris-tricine gradient gel. Oligomer bands were visualized by silver staining (SilverXpress, Invitrogen). Quantitative analysis was carried out using GelAnalyzer software version 2010a. The relative intensity of each band was calculated by first correcting the baseline, then integrating the area under each peak.

Data set [4] can be described thus: Solubility assay by ultracentrifugation. Type of data set: physicochemical. The note with it: 20,000 g for 20 min; UV absorbance at 215 nm. Here is the method: Samples of toxic lag phase intermediates or amyloid fibrils were ultracentrifuged for 20 min (20,000 g) and the protein in the soluble fraction (the supernatant) was measured by UV absorbance (215 nm) before and after ultracentrifugation using a DU 730 Life Science UV/Vis spectrophotometer (Beckman Coulter).

For data set [5] the following is noted: ref Wang et al., 2014b; cited from earlier work. The text has this: (§2) IAPP is expressed by all mammals examined to date; the amino acid sequences are ~80% conserved between species, however not all IAPP sequences are toxic or form amyloid in vivo (Figure 5—figure supplement 1) ([Betsholtz et al., 1989]; [Cao et al., 2013b]; [Westermark et al., 1990]).
The subject of data set [6] is rat INS-1 β-cells. To be noted: ref Wang et al., 2014b; cited from earlier work.
From the text: as §2

Setting [7] is: aliquots from peptide in 20 mM Tris HCl pH 7.4, 25°C, 14 μM (h-IAPP) or 28 μM (3xL-IAPP) final, 5 h on cells, toxicity defined as <80% viability.
Where [8] appears, read: 1:1 addition to h-IAPP (40 µM each).

For “3xL-IAPP: triple mutant of h-IAPP that lacks aromatic residues (KCNTATCATQRLANLLVHSSNNLGAILSSTNVGSNTL; ends and bridges not checked; cysteine pairing not given here; UniProt P10997 34-70, looked up, variant F15L F23L Y37L)”, in data set [1] (40 μM peptide solution (28 μM final on cells), Alamar Blue, 5 h on INS-1 β-cells, relative to buffer treated cells, mean, three replicate experiments), the “β-cell viability at time point of maximum toxicity” value turned out to be 67%. In data set [1] (setting [7]), the “Toxicity of amyloid fibrils (saturation phase) to β-cells” value is on record as “not toxic” and the “Toxicity of lag phase intermediates to β-cells” value is on record as “clearly still toxic”. Also, the Amyloid formation entry in data set [2] is on record as “form amyloid more slowly than the human peptide”.

Substance human islet amyloid polypeptide had an upper limit of β-sheet content of less than 15%.

“I26P-IAPP: I26P point mutant of h-IAPP; inhibitor of h-IAPP amyloid formation (KCNTATCATQRLANFLVHSSNNFGAPLSSTNVGSNTY-NH2; disulfide 2-7; ends not checked; UniProt P10997 34-70, looked up, variant I26P)”: the “Toxicity to β-cells over the time course of aggregation” value in data set [1] (Alamar Blue, 5 h on cells) is “not toxic at any time point”. Moreover, the “Effect on duration of h-IAPP cytotoxicity” value in data set [1] (1:1 addition to h-IAPP, 80 µM total peptide, 56 µM final on cells, time-resolved Alamar Blue) was “increases the duration of toxicity proportionally”. The “Distribution of oligomers in solution” value in data set [3] is recorded as “low order oligomers”. Further, in data set [2] (setting [8]), the “Effect on T50 of h-IAPP amyloid formation (time to 50% of total thioflavin-T signal change)” value is on record as “increased by a factor of two” and the “Effect on length of h-IAPP lag phase (time to 10% of total thioflavin-T signal change)” value was “increased by a factor of two”. Also, the Amyloid formation entry in data set [2] was “non-amyloidogenic”.

For “r-IAPP: non-toxic, non-amyloidogenic rat IAPP, negative control [reference compound]”, the “Toxicity to β-cells over the time course of aggregation” value in data set [1] (Alamar Blue, 5 h on cells) was “not toxic at any time point”. In data set [1] (28, 56 and 84 µM peptide prepared directly in cell culture medium, 24, 48 or 96 h on cells, Alamar Blue), the “Toxicity to β-cells, dose-response” value is “No detectable toxicity”. For the same substance, the “Toxicity over extended time course” value in data set [1] (28 day time course, data not shown) is recorded as “not toxic over a 28 day time course”. Besides, the “Solubility under ultracentrifugation conditions (control)” value in data set [4] is reported as “soluble”. In data set [3], the “Distribution of oligomers in solution” value is given as “monomers to hexamers”. Also, the Amyloid formation result in data set [2] is given as “does not form amyloid fibrils”.

For the substance “TM-IAPP: H18R, G24P, I26P triple mutant of h-IAPP (KCNTATCATQRLANFLVRSSNNFPAPLSSTNVGSNTY-NH2; disulfide 2-7; ends not checked; UniProt P10997 34-70, looked up, variant H18R G24P I26P)”, the Amyloid formation result in data set [5] is “non-amyloidogenic”. Also, in data set [6], the Toxicity result is recorded as “non-toxic”. For the same substance, the “Distribution of oligomers in solution” value in data set [3] was “oligomerizes”.

Values taken from article PMC4940161, “Time-resolved studies define the nature of toxic IAPP intermediates, providing insight for anti-amyloidosis therapeutics” (eLife, 2016).
